From patent publication US20190077876A1 (AbbVie / Abbott, published 2019)

How the values were obtained:
[1] = target: hCLDN proteins on the surface of PDX tumor cells; test: flow cytometry on OV44 (OV-S) PDX tumor cells, NTG subpopulation; change in geometric MFI against the IgG1 isotype control
[2] = target: hCLDN proteins on the surface of PDX tumor cells; test: flow cytometry on PA20 (PDAC) PDX tumor cells, NTG subpopulation; change in geometric MFI against the IgG1 isotype control
[3] = target: hCLDN proteins on the surface of PDX tumor cells; test: flow cytometry on PA24 (PDAC) PDX tumor cells, NTG subpopulation; change in geometric MFI against the IgG1 isotype control
[4] = target: hCLDN proteins on the surface of PDX tumor cells; test: flow cytometry on PA49 (PDAC) PDX tumor cells, NTG subpopulation; change in geometric MFI against the IgG1 isotype control
[5] = target: hCLDN proteins on the surface of PDX tumor cells; test: flow cytometry on LU22 (LU-Sq) PDX tumor cells, NTG subpopulation; change in geometric MFI against the IgG1 isotype control
[6] = target: hCLDN proteins on the surface of PDX tumor cells; test: flow cytometry on LU135 (LU-Ad) PDX tumor cells, NTG subpopulation; change in geometric MFI against the IgG1 isotype control
[7] = target: hCLDN proteins on the surface of PDX tumor cells; test: flow cytometry on OV54MET (OV-S) PDX tumor cells, NTG subpopulation; change in geometric MFI against the IgG1 isotype control
[8] = target: hCLDN proteins on the surface of PDX tumor cells; test: flow cytometry on OV91MET (OV-PS) PDX tumor cells, NTG subpopulation; change in geometric MFI against the IgG1 isotype control
[9] = target: hCLDN proteins on the surface of PDX tumor cells; test: flow cytometry on OV44 (OV-S) PDX tumor cells, CSC subpopulation (EPCAM+ CD46hi CD324+); change in geometric MFI against the IgG1 isotype control
[10] = target: hCLDN proteins on the surface of PDX tumor cells; test: flow cytometry on PA20 (PDAC) PDX tumor cells, CSC subpopulation (EPCAM+ CD46hi CD324+); change in geometric MFI against the IgG1 isotype control
[11] = target: hCLDN proteins on the surface of PDX tumor cells; test: flow cytometry on PA24 (PDAC) PDX tumor cells, CSC subpopulation (EPCAM+ CD46hi CD324+); change in geometric MFI against the IgG1 isotype control
[12] = target: hCLDN proteins on the surface of PDX tumor cells; test: flow cytometry on PA49 (PDAC) PDX tumor cells, CSC subpopulation (EPCAM+ CD46hi CD324+); change in geometric MFI against the IgG1 isotype control
[13] = target: hCLDN proteins on the surface of PDX tumor cells; test: flow cytometry on LU22 (LU-Sq) PDX tumor cells, CSC subpopulation (EPCAM+ CD46hi CD324+); change in geometric MFI against the IgG1 isotype control
[14] = target: hCLDN proteins on the surface of PDX tumor cells; test: flow cytometry on LU135 (LU-Ad) PDX tumor cells, CSC subpopulation (EPCAM+ CD46hi CD324+); change in geometric MFI against the IgG1 isotype control
[15] = target: hCLDN proteins on the surface of PDX tumor cells; test: flow cytometry on OV54MET (OV-S) PDX tumor cells, CSC subpopulation (EPCAM+ CD46hi CD324+); change in geometric MFI against the IgG1 isotype control
[16] = target: hCLDN proteins on the surface of PDX tumor cells; test: flow cytometry on OV91MET (OV-PS) PDX tumor cells, CSC subpopulation (EPCAM+ CD46hi CD324+); change in geometric MFI against the IgG1 isotype control
[17] = target: T1, human CLDN6 protein (human, UniProt P56747 1-220); test: cell-based or functional assay
T1 sequence (looked up): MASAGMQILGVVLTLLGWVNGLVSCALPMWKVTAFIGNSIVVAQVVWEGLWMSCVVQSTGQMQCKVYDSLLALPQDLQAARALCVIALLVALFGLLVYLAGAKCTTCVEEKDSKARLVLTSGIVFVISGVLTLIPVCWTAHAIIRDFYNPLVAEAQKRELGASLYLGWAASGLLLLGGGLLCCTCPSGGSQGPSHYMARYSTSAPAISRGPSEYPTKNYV

[18] = target: T2, human CLDN9 protein (human, UniProt O95484 1-217); test: cell-based or functional assay
T2 sequence (looked up): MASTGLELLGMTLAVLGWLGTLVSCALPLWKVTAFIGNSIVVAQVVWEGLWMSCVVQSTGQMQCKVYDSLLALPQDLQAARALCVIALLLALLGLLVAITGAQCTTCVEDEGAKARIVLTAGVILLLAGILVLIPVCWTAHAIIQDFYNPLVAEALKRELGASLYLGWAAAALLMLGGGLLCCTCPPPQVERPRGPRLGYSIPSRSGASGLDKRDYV

[19] = target: T1, human CLDN6 protein; test: cell-based or functional assay; remark: listed apart in the source
[20] = target: T2, human CLDN9 protein; test: cell-based or functional assay; remark: listed apart in the source
[21] = target: T3, human CLDN4 protein (human, UniProt O14493 1-209); test: flow cytometry on cells overexpressing human CLDN4; Alexa 647 anti-mouse secondary; single point
T3 construct: whole, on cells; also called hCLDN4; claudin 4
T3 sequence (looked up): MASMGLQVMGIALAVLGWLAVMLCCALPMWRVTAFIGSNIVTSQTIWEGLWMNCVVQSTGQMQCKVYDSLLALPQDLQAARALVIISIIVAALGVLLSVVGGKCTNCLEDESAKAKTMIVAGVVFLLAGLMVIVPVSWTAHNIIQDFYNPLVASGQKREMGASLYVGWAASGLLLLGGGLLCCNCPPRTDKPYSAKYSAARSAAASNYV

[22] = target: T3, human CLDN4 protein; test: flow cytometry on cells overexpressing human CLDN4; 10 µg/mL purified antibody, Alexa 647 anti-mouse secondary; single point
[23] = target: T1, human CLDN6 protein; test: flow cytometry on cells overexpressing human CLDN6; 10 µg/mL purified antibody, Alexa 647 anti-mouse secondary; single point
[24] = target: T2, human CLDN9 protein; test: flow cytometry on cells overexpressing human CLDN9; 10 µg/mL purified antibody, Alexa 647 anti-mouse secondary; single point
[25] = target: T1, human CLDN6 protein; test: flow cytometry, antibody titration on HEK-293T cells overexpressing CLDN6, four parameter fit of fraction maximal binding; HEK-293T cells overexpressing CLDN6
From the text: (§1) Following additional washing with PBS, cells were fixed with paraformaldehyde (PFA) and read on a BD FACS Canto II flow cytometer in accordance with the manufacturer's instructions. MFI values were normalized using fluorescent microspheres (Bangs Laboratories) according to manufacturer's instructions.

[26] = target: T2, human CLDN9 protein; test: flow cytometry, antibody titration on HEK-293T cells overexpressing CLDN9, four parameter fit of fraction maximal binding; HEK-293T cells overexpressing CLDN9
From the text: as §1

B1: SC27.1 mouse monoclonal anti-CLDN antibody (antibody, V domains shown)
VH: EVQLQESRPELVKPGASVKISCKTSGYTFTEYTLHWVKQSHGKSLEWIGGINPNNGDTIYNQKFKGKATLTVDKSSSTAYMELRSLTSEYSAVYYCARRAITVYAMDYWGQGTSVTVSS
VL: DIQMTQSSSSFSVSLGDRVTITCKASEDIYNRLAWYQQKPGNAPRLLISGATSLETGTPSRFSGSGSGKDYTLSITSLRTEDAATYYCQQYWSTPLTFGTGTKLELK
In the case of B1, the ΔMFI [1] is reported as 53, the ΔMFI [2] is reported as 60 and the ΔMFI [3] is reported as 223. It also gave a ΔMFI [4] of 0, a ΔMFI [5] of 31 and a ΔMFI [6] of 17. The ΔMFI [7] was 21, the ΔMFI [8] was 0 and the ΔMFI [9] was 643. For the same binder, the ΔMFI [10] was 250, the ΔMFI [11] was 1580 and the ΔMFI [12] was 194. The ΔMFI [13] was 733, the ΔMFI [14] was 88 and the ΔMFI [15] was 763. The ΔMFI [16] was 118.

B2: SC27.103 mouse monoclonal anti-CLDN antibody (antibody, V domains shown)
VH: EVHLQQSGPELVKPGGSMKISCKASGYSFTGYTMNWVKQSHGKNLEWIGLFNPYNGGTSYNQKFKGKATLTVDKSSSTAYMELLSLTSEDSAVYYCARCYRYDGLDYWGQGTTLTVSS
VL: QIVLTQSPAIMSASLGERVTMTCTASSSVSSSYLHWYQQKPGSSPTLWIYRTSDLASGVPARFSGSGSGTSYSLTISSMEAEDAATYYCHQYHRSPWTFGGGTRLEIK
With B2 the “apparent IC50 of saporin-mediated cell killing” value [17] was 58 nM, the “apparent IC50 of saporin-mediated cell killing” value [18] was 466 nM and the “apparent IC50 of killing of HEK-293T cells overexpressing hCLDN6; antibody titrated 0.15 to 1000 nM with anti-mouse IgG Fab-saporin, CellTiter-Glo” value [19] was 57.7 nM. For the same binder, the “apparent IC50 of killing of HEK-293T cells overexpressing hCLDN9; antibody titrated 0.15 to 1000 nM with anti-mouse IgG Fab-saporin, CellTiter-Glo” value [20] was 466 nM, the binding result [21] was “no binding (tested: 10 µg/mL)” and the MFI [22] was 75. The MFI [23] was 99600 and the MFI [24] was 12100.

B3: hSC27.22 humanized anti-CLDN antibody (antibody, human IgG1, kappa, V domains shown)
VH: QVQLVQSGAEVKKPGASVKVSCKASGYTFTSYWMNWVRQAPGQRLEWMGMIHPSDSEIRLNQKFKDRVTITRDTSASTAYMELSSLRSEDTAVYYCARIDSYYGYLFYFDYWGQGTTVTVSS
VL: DIVMTQSPDSLAVSLGERATINCRASQTVSTSSYSYMHWYQQKPGQPPKLLIYFASNVESGVPDRFSGSGSGTDFTLTISSLQAEDVAVYYCQHSWEIPWTFGQGTKLEIKR
For B3, the EC50 [25] was 3.45 µg/mL and the EC50 [26] was 4.66 µg/mL.
